Experimental data: US20240417469A1 (CONCEPT TO MEDICINE BIOTECH, published 2024)

Experiments:
[1] = biological target: T1, recombinant CD3D&E protein (human CD3-his tag) (human, UniProt P04234 22-105; P07766 23-126, limits assumed); test: SPR Biacore, Ab captured on Protein A;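 further: humanized antibodies on a Protein A chip, human CD3-his analyte flowed over in serial dilutions for 3 min, dissociation tracked 120–360 s on a Biacore T200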
T1 construct: Analyte in Biacore; also called CD3D&E-His; CD3d&ε-His

[2] = biological target: T2, human CD3 on cells (human PBMC; Jurkat TCR/CD3 NFAT reporter cells) (human, UniProt P07766 23-207; P04234 22-171; P09693 23-182); test: cell-based or functional assay
[3] = biological target: T3, human CD3 protein (human, UniProt P07766 23-126; P04234 22-105); test: ELISA, plate-coated CD3;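 further: binding to plate-immobilized human CD3 protein, bound antibody detected with peroxidase-labelled anti-human IgG and TMB, read as absorbance at 450 nm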
T3 construct: ELISA coating protein; also called Human CD3D & CD3E Heterodimer Protein

[4] = biological target: T2, human CD3 on cells (human PBMC; Jurkat …); test: cell-based or functional assay; remark: listed apart in the source

T3 sequence (P07766 23-126 limits assumed, chain 1 of 2): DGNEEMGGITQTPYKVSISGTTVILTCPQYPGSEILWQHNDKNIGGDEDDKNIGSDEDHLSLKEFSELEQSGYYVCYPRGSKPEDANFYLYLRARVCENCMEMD
T3 sequence (P04234 22-105 limits assumed, chain 2 of 2): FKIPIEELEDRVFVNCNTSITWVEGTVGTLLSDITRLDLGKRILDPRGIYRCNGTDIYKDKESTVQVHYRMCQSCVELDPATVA
T1 sequence (P04234 22-105 limits assumed, chain 1 of 2): as the sequence (P04234 22-105 limits assumed, chain 2 of 2) above
T1 sequence (P07766 23-126 limits assumed, chain 2 of 2): as the sequence (P07766 23-126 limits assumed, chain 1 of 2) above
T2 sequence (P07766 23-207, chain 1 of 3): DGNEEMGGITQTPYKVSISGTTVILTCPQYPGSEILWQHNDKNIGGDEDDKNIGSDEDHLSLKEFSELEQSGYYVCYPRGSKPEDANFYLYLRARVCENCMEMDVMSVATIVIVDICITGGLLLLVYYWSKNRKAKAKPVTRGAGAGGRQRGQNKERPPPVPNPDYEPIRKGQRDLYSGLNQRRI
T2 sequence (P04234 22-171, chain 2 of 3): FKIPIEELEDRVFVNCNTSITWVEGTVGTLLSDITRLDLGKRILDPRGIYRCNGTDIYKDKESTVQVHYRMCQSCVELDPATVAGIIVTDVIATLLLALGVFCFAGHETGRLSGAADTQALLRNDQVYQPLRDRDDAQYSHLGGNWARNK
T2 sequence (P09693 23-182, chain 3 of 3): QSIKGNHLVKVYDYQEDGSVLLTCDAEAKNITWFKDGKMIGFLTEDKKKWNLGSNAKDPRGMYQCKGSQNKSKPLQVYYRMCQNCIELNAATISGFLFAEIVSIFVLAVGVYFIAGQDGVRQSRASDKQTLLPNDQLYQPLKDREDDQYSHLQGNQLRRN

Binder	Kd [1] [nM]	koff [1] [s⁻¹]	kon [1] [M⁻¹ s⁻¹]	% of SP34 [2] [%]	Emax [2]	EC50 [3] [ng/mL]	CD3-NFAT Activity by CD3 mAb [4] [% SP34]
Hu155A9B1-1 (antibody, V domains shown, humanized mAb) VH: EVQLQESGPGLVKPSETLSLTCTVSGGSISSYNVHWIRQPPGKGLEWIGRVRYNGDTSYNSALKSRVTISVDTSKNQFSLKLSSVTAADTAVYYCARGPYGGSSEPLFDYWGQGTMVTVSS VL: DIQMTQSPSSLSASVGDRVTITCKASQNINKYLNWYQQKPGKAPRLLIYTTNNLQTGVPSRFSGSGSGTDFTLTISSLQPEDFATYYCLQHNSGYTFGQGTKLEIK	40.4	0.00441	109000	14.2	720	428	≤ 50
Hu153A6B1-16 (antibody, V domains shown, humanized mAb) VH: EVQLQESGPGLVKPSETLSLTCTVSGGSISSYNIHWVRQPPGKGLEWMGRIRYNGDTSYNSALKSRLTISRDTSKNQFSLKLSSVTAADTAVYYCTRGPYGGSREPLFDYWGQGTMVTVSS VL: DIQMTQSPSSLSASVGDRVTITCKTSQNINKYLNWFQQKPGKAPKLLIYTTNNLQTGIPSRFSGSGSGTDFTLTISSLQPEDFATYFCLQHGSGYTFGQGTKLEIK	61.9	0.111	1.8e+06	71.9	3970	3.44	> 50
Hu155A9B1-2 (antibody, V domains shown, humanized mAb) VH: EVQLQESGPGLVKPSETLSLTCTVSGGSISSYNVHWVRQPPGKGLEWIGRVRYNGDTSYNSALKSRVTISRDTSKNQFSLKLSSVTAADTAVYYCARGPYGGSSEPLFDYWGQGTMVTVSS VL: DIQMTQSPSSLSASVGDRVTITCKASQNINKYLNWYQQKPGKAPRLLIYTTNNLQTGVPSRFSGSGSGTDFTLTISSLQPEDFATYYCLQHNSGYTFGQGTKLEIK	15.8	0.00704	445000	12.9	656	26.4	≤ 50
Hu153A6B1-17 (antibody, V domains shown, humanized mAb) VH: EVQLQESGPGLVKPSETLSLTCTVSGFSISSYNIHWVRQPPGKGLEWMGRIRYNGDTSYNSALKSRLTISRDTSKNQVSLKLSSVTAADTAVYYCTRGPYGGSREPLFDYWGQGTMVTVSS VL: DIQMTQSPSSLSASVGDRVTITCKTSQNINKYLNWFQQKPGKAPKLLIYTTNNLQTGIPSRFSGSGSGTDFTLTISSLQPEDFATYFCLQHGSGYTFGQGTKLEIK	11.1	0.00106	95400	77.2	4260	2.89	> 50
Hu153A6B1-14 (antibody, V domains shown, humanized mAb) VH: EVQLQESGPGLVKPSETLSLTCTVSGGSISSYNIHWVRQPPGKGLEWIGRIRYNGDTSYNSALKSRVTISRDTSKNQFSLKLSSVTAADTAVYYCARGPYGGSREPLFDYWGQGTMVTVSS VL: DIQMTQSPSSLSASVGDRVTITCKTSQNINKYLNWFQQKPGKAPKLLIYTTNNLQTGIPSRFSGSGSGTDFTLTISSLQPEDFATYFCLQHGSGYTFGQGTKLEIK	51.7	0.053	1.02e+06	74.9	4140	3.06	> 50
Hu153A6B1-7 (antibody, V domains shown, humanized mAb) VH: EVQLQESGPGLVKPSETLSLTCTVSGGSISSYNIHWIRQPPGKGLEWIGRIRYNGDTSYNSALKSRVTISVDTSKNQFSLKLSSVTAADTAVYYCARGPYGGSREPLFDYWGQGTMVTVSS VL: DIQMTQSPSSLSASVGDRVTITCKTSQNINKYLNWFQQKPGKAPKLLIYTTNNLQTGIPSRFSGSGSGTDFTLTISSLQPEDFATYYCLQHGSGYTFGQGTKLEIK	45.2	0.0142	314000	26.9	1580	6.78	≤ 50

The remaining binders from weak to strong by Kd [1], led by results:

Kd [1] [nM]	koff [1] [s⁻¹]	kon [1] [M⁻¹ s⁻¹]	% of SP34 [2] [%]	Emax [2]	EC50 [3] [ng/mL]	CD3-NFAT Activity by CD3 mAb [4] [% SP34]	Binder
76.2	0.0151	198000	75.2	4150	3.03	> 50	Hu153A6B1-15 (antibody, V domains shown, humanized mAb) VH: EVQLQESGPGLVKPSETLSLTCTVSGGSISSYNIHWVRQPPGKGLEWMGRIRYNGDTSYNSALKSRLTISRDTSKNQFSLKLSSVTAADTAVYYCARGPYGGSREPLFDYWGQGTMVTVSS VL: DIQMTQSPSSLSASVGDRVTITCKTSQNINKYLNWFQQKPGKAPKLLIYTTNNLQTGIPSRFSGSGSGTDFTLTISSLQPEDFATYFCLQHGSGYTFGQGTKLEIK
70.5	0.0568	806000	73.9	4080	3.44	> 50	Hu153A6B1-10 (antibody, V domains shown, humanized mAb) VH: EVQLQESGPGLVKPSETLSLTCTVSGGSISSYNIHWVRQPPGKGLEWMGRIRYNGDTSYNSALKSRLTISRDTSKNQFSLKLSSVTAADTAVYYCTRGPYGGSREPLFDYWGQGTMVTVSS VL: DIQMTQSPSSLSASVGDRVTITCKTSQNINKYLNWFQQKPGKAPKLLIYTTNNLQTGIPSRFSGSGSGTDFTLTISSLQPEDFATYYCLQHGSGYTFGQGTKLEIK
49	0.0396	808000	70.5	4130	2.95	> 50	Hu153A6B1-8 (antibody, V domains shown, humanized mAb) VH: EVQLQESGPGLVKPSETLSLTCTVSGGSISSYNIHWVRQPPGKGLEWIGRIRYNGDTSYNSALKSRVTISRDTSKNQFSLKLSSVTAADTAVYYCARGPYGGSREPLFDYWGQGTMVTVSS VL: DIQMTQSPSSLSASVGDRVTITCKTSQNINKYLNWFQQKPGKAPKLLIYTTNNLQTGIPSRFSGSGSGTDFTLTISSLQPEDFATYYCLQHGSGYTFGQGTKLEIK
29.6	0.0103	349000	23.2	1280	6.38	≤ 50	Hu153A6B1-13 (antibody, V domains shown, humanized mAb) VH: EVQLQESGPGLVKPSETLSLTCTVSGGSISSYNIHWIRQPPGKGLEWIGRIRYNGDTSYNSALKSRVTISVDTSKNQFSLKLSSVTAADTAVYYCARGPYGGSREPLFDYWGQGTMVTVSS VL: DIQMTQSPSSLSASVGDRVTITCKTSQNINKYLNWFQQKPGKAPKLLIYTTNNLQTGIPSRFSGSGSGTDFTLTISSLQPEDFATYFCLQHGSGYTFGQGTKLEIK
21.1	0.00181	85800	71.9	4210	2.99	> 50	Hu153A6B1-6 (antibody, V domains shown, humanized mAb) VH: EVQLQESGPGLVKPSETLSLTCTVSGFSLTSYNIHWVRQPPGKGLEWMGRIRYNGDTSYNSALKSRLTISRDTSKNQVSLKLSSVTAADTAVYYCTRGPYGGSREPLFDYWGQGTMVTVSS VL: DIQMTQSPSSLSASVGDRVTITCKTSQNINKYLNWYQQKPGKAPKLLIYTTNNLQTGVPSRFSGSGSGTDFTLTISSLQPEDFATYYCLQHGSGYTFGQGTKLEIK
19.4	0.00177	91300	78.5	4600	3.23	> 50	Hu153A6B1-5 (antibody, V domains shown, humanized mAb) VH: EVQLQESGPGLVKPSETLSLTCTVSGFSISSYNIHWVRQPPGKGLEWMGRIRYNGDTSYNSALKSRLTISRDTSKNQVSLKLSSVTAADTAVYYCTRGPYGGSREPLFDYWGQGTMVTVSS VL: DIQMTQSPSSLSASVGDRVTITCKTSQNINKYLNWYQQKPGKAPKLLIYTTNNLQTGVPSRFSGSGSGTDFTLTISSLQPEDFATYYCLQHGSGYTFGQGTKLEIK
13.5	0.00107	79400	87.5	4830	2.69	> 50	Hu153A6B1-12 (antibody, V domains shown, humanized mAb) VH: EVQLQESGPGLVKPSETLSLTCTVSGFSLTSYNIHWVRQPPGKGLEWMGRIRYNGDTSYNSALKSRLTISRDTSKNQVSLKLSSVTAADTAVYYCTRGPYGGSREPLFDYWGQGTMVTVSS VL: DIQMTQSPSSLSASVGDRVTITCKTSQNINKYLNWFQQKPGKAPKLLIYTTNNLQTGIPSRFSGSGSGTDFTLTISSLQPEDFATYYCLQHGSGYTFGQGTKLEIK
12.5	0.00107	85400	88.8	4900	2.82	> 50	Hu153A6B1-18 (antibody, V domains shown, humanized mAb) VH: EVQLQESGPGLVKPSETLSLTCTVSGFSLTSYNIHWVRQPPGKGLEWMGRIRYNGDTSYNSALKSRLTISRDTSKNQVSLKLSSVTAADTAVYYCTRGPYGGSREPLFDYWGQGTMVTVSS VL: DIQMTQSPSSLSASVGDRVTITCKTSQNINKYLNWFQQKPGKAPKLLIYTTNNLQTGIPSRFSGSGSGTDFTLTISSLQPEDFATYFCLQHGSGYTFGQGTKLEIK
11.4	0.00106	93000	81	4470	3.05	> 50	Hu153A6B1-11 (antibody, V domains shown, humanized mAb) VH: EVQLQESGPGLVKPSETLSLTCTVSGFSISSYNIHWVRQPPGKGLEWMGRIRYNGDTSYNSALKSRLTISRDTSKNQVSLKLSSVTAADTAVYYCTRGPYGGSREPLFDYWGQGTMVTVSS VL: DIQMTQSPSSLSASVGDRVTITCKTSQNINKYLNWFQQKPGKAPKLLIYTTNNLQTGIPSRFSGSGSGTDFTLTISSLQPEDFATYYCLQHGSGYTFGQGTKLEIK
